This note sets out measurements from patent US6428997.

Series [1] has as its system T1, leucyl oligopeptide of SEQ ID NO: 2.
T1 sequence: LFPTEPS

The target of series [2] is methionyl human growth hormone (UniProt P01241).
Series [3] concerns T2, methionyl oligopeptide of SEQ ID NO: 1 (Met-Phe-Pro-Thr-Glu-Pro-Ser).
T2 sequence: MFPTEPS

In general, Km refers to the concentration of substrate that gives half-maximal velocity. Broadly, the kcat is the number of substrate molecules converted per active site and unit of time at saturation.

Sequence of methionyl human growth hormone (P01241 other isoform, or with tags, fused parts or gaps): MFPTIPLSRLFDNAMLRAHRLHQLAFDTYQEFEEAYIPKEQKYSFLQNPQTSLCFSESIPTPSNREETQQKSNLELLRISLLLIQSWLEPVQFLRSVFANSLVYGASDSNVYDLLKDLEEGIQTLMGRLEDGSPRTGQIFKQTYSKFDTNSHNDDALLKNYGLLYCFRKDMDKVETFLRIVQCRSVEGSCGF

“aminopeptidase from Bacillus licheniformis (purified from Bacillus licheniformis ATCC 12759)”: in series [1], the Kcat/Km was found to be 1630 mM⁻¹ s⁻¹, the Michaelis-Menten constant (Km) was found to be 0.172 mM and the kcat worked out at 276 s⁻¹. Also, in series [2], the “removal of N-terminal methionine (N-terminal sequencing of the recovered HGH)” value is on record as “remove N-terminal methionine of methionyl HGH completely” and the “removal of N-terminal methionine, large scale (N-terminal sequencing of the recovered HGH)” value is “HGH produced by the above process had phenylalanine at the N-terminus due to methionine removal”. Moreover, in series [3], the Kcat/Km was determined as 56.1 mM⁻¹ s⁻¹, the Michaelis-Menten constant (Km) stood at 0.387 mM and the turnover number (kcat) was determined as 21.1 s⁻¹.
